Measurements from patent US20160068605A1 (Janssen / Centocor, published 2016).

T1: Recombinant human CD123 SP1 ECD-His tag protein (human, UniProt P26951 20-305)
T1 construct: bought from R&D Systems (#301-R3/CF); biotinylated for some assays; also called rhCD123 SP1; huCD123 ECD SP1
T1 sequence: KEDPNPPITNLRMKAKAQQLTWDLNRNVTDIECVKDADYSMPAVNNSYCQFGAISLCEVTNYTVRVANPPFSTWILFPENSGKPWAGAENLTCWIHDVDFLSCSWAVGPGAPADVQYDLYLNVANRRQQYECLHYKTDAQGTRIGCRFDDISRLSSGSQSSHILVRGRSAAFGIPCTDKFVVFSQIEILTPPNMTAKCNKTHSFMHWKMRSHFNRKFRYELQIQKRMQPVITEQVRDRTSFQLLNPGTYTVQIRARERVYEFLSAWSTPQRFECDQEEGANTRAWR

T2: Recombinant human CD123 SP2 ECD protein (human, UniProt P26951 101-303)
T2 construct: also called rhCD123 SP2; CD123 ECD SP2
T2 sequence: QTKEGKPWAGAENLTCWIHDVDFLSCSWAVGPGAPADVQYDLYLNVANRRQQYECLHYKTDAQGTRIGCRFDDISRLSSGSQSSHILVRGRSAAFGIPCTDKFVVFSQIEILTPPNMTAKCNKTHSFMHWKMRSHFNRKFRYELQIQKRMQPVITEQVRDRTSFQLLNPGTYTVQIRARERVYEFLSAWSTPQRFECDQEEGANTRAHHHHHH

T3: human CD123 SP1 ECD displayed on pDisplay-transfected cells (human, UniProt P26951 20-305)
T3 construct: ECD anchored on the surface of stably transfected HEK293 cells by the PDGFR transmembrane domain; also called hCD123 SP1 cells; hCD123 cells
T3 sequence: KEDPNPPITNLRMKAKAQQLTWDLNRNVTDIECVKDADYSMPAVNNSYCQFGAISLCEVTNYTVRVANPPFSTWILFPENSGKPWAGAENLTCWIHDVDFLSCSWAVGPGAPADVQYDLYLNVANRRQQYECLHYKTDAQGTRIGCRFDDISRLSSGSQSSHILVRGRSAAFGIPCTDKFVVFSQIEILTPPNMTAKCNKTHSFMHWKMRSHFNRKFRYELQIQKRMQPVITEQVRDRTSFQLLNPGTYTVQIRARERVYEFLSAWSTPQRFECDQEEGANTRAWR

T4: human CD123 SP2 ECD displayed on pDisplay-transfected cells (human, UniProt P26951 101-305)
T4 construct: ECD anchored on the surface of stably transfected HEK293 cells; also called hCD123 SP2 cells; pDisplay CD123SP2
T4 sequence: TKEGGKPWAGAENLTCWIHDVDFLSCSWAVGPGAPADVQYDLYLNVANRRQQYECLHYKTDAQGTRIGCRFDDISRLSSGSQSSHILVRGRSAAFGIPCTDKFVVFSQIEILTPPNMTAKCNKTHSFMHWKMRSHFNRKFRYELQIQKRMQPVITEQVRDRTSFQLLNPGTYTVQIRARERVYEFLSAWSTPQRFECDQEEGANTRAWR


Key:
[1] = target: T1, Recombinant human CD123 SP1 ECD-His tag …; assay: SPR Biacore T200, captured antibody
Procedure: (§1) Kinetic studies were performed at 25° C. using a Biacore T200 (Biacore, Inc., now part of GE Healthcare). […] The carboxymethyl groups of dextran were activated with N-Ethyl-N′-(3-Dimethylaminopropyl)carbodiimide (EDC) and N-hydroxysuccinimide (NHS). The anti-Fc antibody was coupled at pH 4.5 in 10 mM sodium acetate. Any remaining reactive sites on the surface were blocked by reaction with ethanolamine. […] 40-70 RU of antibody were captured. […] Association data was collected for 2 min followed by 10 min of dissociation. The surface was regenerated with 30 μL of 100 mM H3PO4 100 μL/min, followed by 50 mM NaOH. The samples for kinetic analysis were prepared in PBS-based buffer (D-PBS containing 3 mM EDTA and 0.005% surfactant P20). Data reported is the difference in SPR signal between the flow cell containing the captured antibody and a reference cell without captured antibody. Additional instrumental contributions to the signal were removed by subtraction of the data from the blank injection from the reference-subtracted signal. Data were analyzed by fitting association and dissociation phases at all concentrations (global fit) with a 1:1 binding model using the BIAevaluation software (BIAcore, Inc.).

[2] = target: T2, Recombinant human CD123 SP2 ECD protein; assay: SPR Biacore T200, captured antibody
Procedure: as §1

[3] = target: T5, cell-surface CD3 epsilon on primary human T cells (human, UniProt P07766 23-207); assay: competition flow cytometry on primary human T cells (Human Donor 10357); competitor displaced: Alexa Fluor 488-labelled CD3B146
T5 construct: whole, on cells; part of the CD3/TCR complex on the cells
T5 sequence (P07766 23-207): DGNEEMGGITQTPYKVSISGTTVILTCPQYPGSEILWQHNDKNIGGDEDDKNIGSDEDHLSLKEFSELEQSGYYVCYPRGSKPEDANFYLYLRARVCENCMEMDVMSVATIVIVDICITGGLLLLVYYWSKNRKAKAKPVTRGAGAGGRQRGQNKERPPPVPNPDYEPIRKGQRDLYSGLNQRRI
Source text: (§2) The format involved competition binding using a fixed concentration of labeled anti-CD3 mAb of known affinity and increasing concentrations of unlabeled test Abs (Ashkenazi A et al. PNAS: 88:10535, 1991.).

[4] = target: T3, human CD123 SP1 ECD displayed on …; assay: MSD-CAT on pDisplay cells
Procedure: (§3) The MSD-CAT was developed in-house as a label-free method to determine affinity using intact cells in a high throughput format. […] Cell lines used were human pDisplay CD123SP1 and pDisplay CD123SP2. […] These samples were prepared in DMEM Glutamax medium containing 0.05% Azide, 1% BSA, 3 mM EDTA. […] After equilibration the plate was centrifuged for 5 minutes ˜1000 rpm and free anti-CD3 detected on the supernatant. […] The assay buffer was removed without washing and 50 uL/well of 0.7 ug/mL of biotinylated antigen in assay buffer were added to MSD plates and incubated overnight (˜16 hours at 4° C.).

[5] = target: T4, human CD123 SP2 ECD displayed on …; assay: MSD-CAT on pDisplay cells
Procedure: as §3

[6] = target: T5, cell-surface CD3 epsilon on primary …; assay: flow cytometry competition with labeled CD3B146 on T cells
Source text: as §2

[7] = target: T6, cell-surface CD3 epsilon on primary cynomolgus T cells (cynomolgus monkey, UniProt Q95LI5 22-198); assay: as above
T6 construct: whole, on cells; also called cynomolgus CD3e; Cyno T-cells
T6 sequence (Q95LI5 22-198): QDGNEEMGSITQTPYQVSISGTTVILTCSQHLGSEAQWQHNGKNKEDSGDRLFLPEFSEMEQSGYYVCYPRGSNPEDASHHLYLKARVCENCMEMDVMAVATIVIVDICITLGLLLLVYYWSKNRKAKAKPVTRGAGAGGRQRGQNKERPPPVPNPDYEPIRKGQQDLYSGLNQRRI
Source text: as §2

Row | Binder | Kd [1] | koff [1] | kon [1] | Kd [2] | koff [2] | kon [2] | IC50 (read off the curve) [3] | Kd [4] | Kd [5] | Kd [6] | Kd [7]
1 | bispecific antibody 9958 Ab (bispecific antibody, human IgG4 S228P, kappa, lambda, F234A L235A, IgG4-PAA; CD3 arm of CD3B220, CD123 arm of I3RB217 (I3RB18)) heavy 1: EVQLVESGGGLVQPGGSLKLSCAASGFTFNTYAMNWVRQASGKGLEWVGRIRSKYNAYATYYAASVKGRFTISRDDSKNTAYLQMNSLKTEDTAVYYCTRHGNFGNSYVSWFAYWGQGTLVTVSSASTKGPSVFPLAPCSRSTSESTAALGCLVKDYFPEPVTVSWNSGALTSGVHTFPAVLQSSGLYSLSSVVTVPSSSLGTKTYTCNVDHKPSNTKVDKRVESKYGPPCPPCPAPEAAGGPSVFLFPPKPKDTLMISRTPEVTCVVVDVSQEDPEVQFNWYVDGVEVHNAKTKPREEQFNSTYRVVSVLTVLHQDWLNGKEYKCKVSNKGLPSSIEKTISKAKGQPREPQVYTLPPSQEEMTKNQVSLTCLVKGFYPSDIAVEWESNGQPENNYKTTPPVLDSDGSFLLYSKLTVDKSRWQEGNVFSCSVMHEALHNHYTQKSLSLSLGK light 1: QAVVTQEPSLTVSPGGTVTLTCRSSTGAVTTSNYANWVQQKPGQAPRGLIGGTNKRAPGTPARFSGSLLGGKAALTLSGAQPEDEAEYYCALWYSNLWVFGGGTKLTVLGQPKAAPSVTLFPPSSEELQANKATLVCLISDFYPGAVTVAWKADSSPVKAGVETTTPSKQSNNKYAASSYLSLTPEQWKSHRSYSCQVTHEGSTVEKTVAPTECS heavy 2: not shown light 2: EIVLTQSPGTLSLSPGERATLSCRASQSVSSSYLAWYQQKPGQAPRLLIYGASSRATGIPDRFSGSGSGTDFTLTISRLEPEDFAVYYCQQDYGFPWTFGQGTKVEIKRTVAAPSVFIFPPSDEQLKSGTASVVCLLNNFYPREAKVQWKVDNALQSGNSQESVTEQDSKDSTYSLSSTLTLSKADYEKHKVYACEVTHQGLSSPVTKSFNRGEC | 1.34 nM | 0.00079 s⁻¹ | 587000 M⁻¹ s⁻¹ | 0.311 nM | 0.0011 s⁻¹ | 3.57e+06 M⁻¹ s⁻¹ | ~80 nM | 0.121 nM | 0.538 nM | 43 nM | 29.1 nM
2 | bispecific antibody Ab 4435 (bispecific antibody, human IgG4 S228P, kappa, lambda, F234A L235A) heavy 1: EVQLLESGGGLVQPGGSLRLSCAASGFTFNTYAMNWVRQAPGKGLEWVARIRSKYNNYATYYADSVKGRFTISRDNSKNTLYLQMNSLRAEDTAVYYCVKHGNFGNSYVSWFAYWGQGTLVTVSSASTKGPSVFPLAPCSRSTSESTAALGCLVKDYFPEPVTVSWNSGALTSGVHTFPAVLQSSGLYSLSSVVTVPSSSLGTKTYTCNVDHKPSNTKVDKRVESKYGPPCPPCPAPEAAGGPSVFLFPPKPKDTLMISRTPEVTCVVVDVSQEDPEVQFNWYVDGVEVHNAKTKPREEQFNSTYRVVSVLTVLHQDWLNGKEYKCKVSNKGLPSSIEKTISKAKGQPREPQVYTLPPSQEEMTKNQVSLTCLVKGFYPSDIAVEWESNGQPENNYKTTPPVLDSDGSFLLYSKLTVDKSRWQEGNVFSCSVMHEALHNHYTQKSLSLSLGK light 1: QTVVTQEPSLTVSPGGTVTLTCRSSTGAVTTSNYANWVQQKPGQAPRGLIGGTNKRAPGTPARFSGSLLGGKAALTLSGVQPEDEAEYYCALWYSNLWVFGGGTKLTVLGQPKAAPSVTLFPPSSEELQANKATLVCLISDFYPGAVTVAWKADSSPVKAGVETTTPSKQSNNKYAASSYLSLTPEQWKSHRSYSCQVTHEGSTVEKTVAPTECS heavy 2: not shown light 2: not shown | 14.3 nM | 0.0048 s⁻¹ | 337000 M⁻¹ s⁻¹ | 1.74 nM | 0.005 s⁻¹ | 2.88e+06 M⁻¹ s⁻¹ | – | 1.53 nM | 3.7 nM | 174 nM | 139 nM
3 | bispecific antibody Ab 5466 (bispecific antibody, human IgG4 S228P, kappa, lambda, F234A L235A) heavy 1: EVQLVESGGGLVQPGGSLKLSCAASGFTFNTYAMNWVRQASGKGLEWVGRIRSKYNAYATYYAASVKGRFTISRDDSKNTAYLQMNSLKTEDTAVYYCTRHGNFGNSYVSWFAYWGQGTLVTVSSASTKGPSVFPLAPCSRSTSESTAALGCLVKDYFPEPVTVSWNSGALTSGVHTFPAVLQSSGLYSLSSVVTVPSSSLGTKTYTCNVDHKPSNTKVDKRVESKYGPPCPPCPAPEAAGGPSVFLFPPKPKDTLMISRTPEVTCVVVDVSQEDPEVQFNWYVDGVEVHNAKTKPREEQFNSTYRVVSVLTVLHQDWLNGKEYKCKVSNKGLPSSIEKTISKAKGQPREPQVYTLPPSQEEMTKNQVSLTCLVKGFYPSDIAVEWESNGQPENNYKTTPPVLDSDGSFLLYSKLTVDKSRWQEGNVFSCSVMHEALHNHYTQKSLSLSLGK light 1: QAVVTQEPSLTVSPGGTVTLTCRSSTGAVTTSNYANWVQQKPGQAPRGLIGGTNKRAPGTPARFSGSLLGGKAALTLSGAQPEDEAEYYCALWYSNLWVFGGGTKLTVLGQPKAAPSVTLFPPSSEELQANKATLVCLISDFYPGAVTVAWKADSSPVKAGVETTTPSKQSNNKYAASSYLSLTPEQWKSHRSYSCQVTHEGSTVEKTVAPTECS heavy 2: not shown light 2: not shown | 13.7 nM | 0.0051 s⁻¹ | 371000 M⁻¹ s⁻¹ | 1.69 nM | 0.0049 s⁻¹ | 2.88e+06 M⁻¹ s⁻¹ | ~70 nM | 2.43 nM | 1.72 nM | 27.9 nM | 25.3 nM
4 | bispecific antibody Ab 7959 (bispecific antibody, human IgG4 S228P, kappa, lambda, F234A L235A, IgG4-PAA; CD3 arm of CD3B219, CD123 arm of I3RB217 (I3RB18)) heavy 1: EVQLVESGGGLVQPGGSLRLSCAASGFTFNTYAMNWVRQAPGKGLEWVARIRSKYNNYATYYAASVKGRFTISRDDSKNSLYLQMNSLKTEDTAVYYCARHGNFGNSYVSWFAYWGQGTLVTVSSASTKGPSVFPLAPCSRSTSESTAALGCLVKDYFPEPVTVSWNSGALTSGVHTFPAVLQSSGLYSLSSVVTVPSSSLGTKTYTCNVDHKPSNTKVDKRVESKYGPPCPPCPAPEAAGGPSVFLFPPKPKDTLMISRTPEVTCVVVDVSQEDPEVQFNWYVDGVEVHNAKTKPREEQFNSTYRVVSVLTVLHQDWLNGKEYKCKVSNKGLPSSIEKTISKAKGQPREPQVYTLPPSQEEMTKNQVSLTCLVKGFYPSDIAVEWESNGQPENNYKTTPPVLDSDGSFLLYSKLTVDKSRWQEGNVFSCSVMHEALHNHYTQKSLSLSLGK light 1: QTVVTQEPSLTVSPGGTVTLTCRSSTGAVTTSNYANWVQQKPGQAPRGLIGGTNKRAPGTPARFSGSLLGGKAALTLSGVQPEDEAEYYCALWYSNLWVFGGGTKLTVLGQPKAAPSVTLFPPSSEELQANKATLVCLISDFYPGAVTVAWKADSSPVKAGVETTTPSKQSNNKYAASSYLSLTPEQWKSHRSYSCQVTHEGSTVEKTVAPTECS heavy 2: not shown light 2: EIVLTQSPGTLSLSPGERATLSCRASQSVSSSYLAWYQQKPGQAPRLLIYGASSRATGIPDRFSGSGSGTDFTLTISRLEPEDFAVYYCQQDYGFPWTFGQGTKVEIKRTVAAPSVFIFPPSDEQLKSGTASVVCLLNNFYPREAKVQWKVDNALQSGNSQESVTEQDSKDSTYSLSSTLTLSKADYEKHKVYACEVTHQGLSSPVTKSFNRGEC | 1.53 nM | 0.00088 s⁻¹ | 579000 M⁻¹ s⁻¹ | 0.335 nM | 0.0013 s⁻¹ | 3.78e+06 M⁻¹ s⁻¹ | ~20 nM | 0.149 nM | 0.461 nM | 11 nM | 11.2 nM
